Test results taken from publication doi:10.1101/2022.01.15.476311.

Target: Toll-like receptor 2 (TLR2) purified protein (UniProt O60603)
Experiment: BLI

Sequence of UniProt O60603 (O60603 21-588): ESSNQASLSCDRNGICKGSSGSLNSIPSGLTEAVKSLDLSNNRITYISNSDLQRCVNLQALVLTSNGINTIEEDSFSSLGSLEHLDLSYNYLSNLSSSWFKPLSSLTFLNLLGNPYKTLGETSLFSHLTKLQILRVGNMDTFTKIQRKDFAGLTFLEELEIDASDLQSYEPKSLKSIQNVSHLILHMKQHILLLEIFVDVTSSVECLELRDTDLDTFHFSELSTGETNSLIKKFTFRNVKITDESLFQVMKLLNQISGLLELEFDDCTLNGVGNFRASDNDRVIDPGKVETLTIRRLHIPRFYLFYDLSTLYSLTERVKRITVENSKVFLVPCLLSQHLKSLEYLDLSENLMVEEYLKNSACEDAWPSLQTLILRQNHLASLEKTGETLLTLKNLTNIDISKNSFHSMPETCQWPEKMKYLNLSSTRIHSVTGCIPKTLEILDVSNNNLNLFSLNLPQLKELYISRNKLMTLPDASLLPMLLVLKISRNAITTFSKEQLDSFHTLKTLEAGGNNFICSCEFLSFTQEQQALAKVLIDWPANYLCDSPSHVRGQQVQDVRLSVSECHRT

With PAM3CSK4 (peptide) the Kd was 1670 nM.
